Data reported in paper PMC5571166, “Mapping the key residues of SufB and SufD essential for biosynthesis of iron-sulfur clusters” (Scientific Reports, 2017).

T1: SufB^R226A (Escherichia coli, UniProt P77522 1-495, SufB^R226A)
T1 construct: SufB of the Escherichia coli sufABCDSE operon
T1 sequence: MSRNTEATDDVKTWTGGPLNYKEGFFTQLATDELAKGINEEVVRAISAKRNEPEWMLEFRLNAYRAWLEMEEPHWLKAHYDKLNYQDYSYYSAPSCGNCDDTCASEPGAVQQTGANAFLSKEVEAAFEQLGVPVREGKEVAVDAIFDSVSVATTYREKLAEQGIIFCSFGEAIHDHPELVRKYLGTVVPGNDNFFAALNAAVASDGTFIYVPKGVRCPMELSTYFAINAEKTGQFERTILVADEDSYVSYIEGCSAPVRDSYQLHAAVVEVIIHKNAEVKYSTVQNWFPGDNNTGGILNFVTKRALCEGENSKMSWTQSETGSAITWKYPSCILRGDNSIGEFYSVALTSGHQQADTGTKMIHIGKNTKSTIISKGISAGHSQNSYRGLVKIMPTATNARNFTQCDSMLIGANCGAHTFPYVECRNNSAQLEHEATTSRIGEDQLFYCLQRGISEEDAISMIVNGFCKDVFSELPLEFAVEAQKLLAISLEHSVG

T2: SufB^K303A (Escherichia coli, UniProt P77522 1-495, SufB^K303A)
T2 construct: SufB of the Escherichia coli sufABCDSE operon
T2 sequence: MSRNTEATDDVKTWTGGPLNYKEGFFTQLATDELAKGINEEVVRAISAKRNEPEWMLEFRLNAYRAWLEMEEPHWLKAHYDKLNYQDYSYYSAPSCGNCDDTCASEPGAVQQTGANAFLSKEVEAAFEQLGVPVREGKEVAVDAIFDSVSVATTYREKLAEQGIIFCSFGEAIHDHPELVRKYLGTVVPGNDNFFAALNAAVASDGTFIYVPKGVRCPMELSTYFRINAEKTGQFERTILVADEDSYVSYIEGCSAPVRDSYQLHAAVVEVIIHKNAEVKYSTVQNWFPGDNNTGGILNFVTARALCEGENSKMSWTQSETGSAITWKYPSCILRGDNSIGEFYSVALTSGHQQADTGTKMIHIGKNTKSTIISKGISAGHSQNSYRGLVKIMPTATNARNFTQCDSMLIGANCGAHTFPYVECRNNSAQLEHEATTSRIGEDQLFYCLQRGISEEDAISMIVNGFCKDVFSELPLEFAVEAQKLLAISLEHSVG

T3: SufB^C405A (Escherichia coli, UniProt P77522 1-495, SufB^C405A)
T3 construct: SufB of the Escherichia coli sufABCDSE operon
T3 sequence: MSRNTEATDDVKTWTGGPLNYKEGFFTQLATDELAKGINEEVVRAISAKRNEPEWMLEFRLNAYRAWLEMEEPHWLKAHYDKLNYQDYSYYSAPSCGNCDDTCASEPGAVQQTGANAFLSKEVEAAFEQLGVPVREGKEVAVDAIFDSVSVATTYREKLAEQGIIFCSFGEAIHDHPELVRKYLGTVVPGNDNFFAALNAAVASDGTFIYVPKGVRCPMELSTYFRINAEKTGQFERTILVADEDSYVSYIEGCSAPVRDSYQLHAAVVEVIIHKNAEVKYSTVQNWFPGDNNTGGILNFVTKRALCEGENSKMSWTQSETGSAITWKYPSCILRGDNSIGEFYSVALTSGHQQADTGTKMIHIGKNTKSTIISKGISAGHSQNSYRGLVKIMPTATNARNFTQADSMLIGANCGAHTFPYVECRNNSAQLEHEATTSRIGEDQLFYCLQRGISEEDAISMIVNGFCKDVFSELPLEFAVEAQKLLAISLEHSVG

T4: SufB^E434A (Escherichia coli, UniProt P77522 1-495, SufB^E434A)
T4 construct: SufB of the Escherichia coli sufABCDSE operon
T4 sequence: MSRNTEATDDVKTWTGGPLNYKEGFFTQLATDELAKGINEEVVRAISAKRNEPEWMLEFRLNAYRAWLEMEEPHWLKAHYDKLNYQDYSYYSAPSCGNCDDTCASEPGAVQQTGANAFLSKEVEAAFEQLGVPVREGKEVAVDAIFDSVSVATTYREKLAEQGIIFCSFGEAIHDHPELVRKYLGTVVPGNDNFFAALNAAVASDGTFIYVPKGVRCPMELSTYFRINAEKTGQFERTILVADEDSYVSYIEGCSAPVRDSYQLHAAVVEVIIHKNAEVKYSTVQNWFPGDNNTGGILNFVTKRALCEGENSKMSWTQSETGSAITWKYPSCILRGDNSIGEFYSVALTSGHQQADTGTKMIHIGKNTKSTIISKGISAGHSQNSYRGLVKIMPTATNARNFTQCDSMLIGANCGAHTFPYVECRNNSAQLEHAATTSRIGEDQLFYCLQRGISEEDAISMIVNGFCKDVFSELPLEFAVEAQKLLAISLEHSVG


How the values were obtained:
Experiment in all cases: SEC; SufBCD complexes co-expressed in E. coli and co-purified on Phenyl FF, Q XL and Sephacryl S-200; eluted from gel filtration at about 160 kDa; subunit composition checked by SDS-PAGE of the purified sample
Conditions in all cases: both partners purified
SufB^R226A = molecular target: T1, SufB^R226A
SufB^K303A = molecular target: T2, SufB^K303A
SufB^C405A = molecular target: T3, SufB^C405A
SufB^E434A = molecular target: T4, SufB^E434A

binding result (SufB^R226A) | binding result (SufB^K303A) | binding result (SufB^C405A) | binding result (SufB^E434A) | Binder
binds | binds | binds | binds | SufC (natural protein, Escherichia coli, SufC of the Escherichia coli sufABCDSE operon; also called SufC subunit of the SufBCD complex) MLSIKDLHVSVEDKAILRGLSLDVHPGEVHAIMGPNGSGKSTLSATLAGREDYEVTGGTVEFKGKDLLALSPEDRAGEGIFMAFQYPVEIPGVSNQFFLQTALNAVRSYRGQETLDRFDFQDLMEEKIALLKMPEDLLTRSVNVGFSGGEKKRNDILQMAVLEPELCILDESDSGLDIDALKVVADGVNSLRDGKRSFIIVTHYQRILDYIKPDYVHVLYQGRIVKSGDFTLVKQLEEQGYGWLTEQQ
binds | binds | binds | binds | SufD (natural protein, Escherichia coli, SufD of the Escherichia coli sufABCDSE operon; One SufD per SufBCD complex (1:2:1); also called SufD subunit of the SufBCD complex) MAGLPNSSNALQQWHHLFEAEGTKRSPQAQQHLQQLLRTGLPTRKHENWKYTPLEGLINSQFVSIAGEISPQQRDALALTLDSVRLVFVDGRYVPALSDATEGSGYEVSINDDRQGLPDAIQAEVFLHLTESLAQSVTHIAVKRGQRPAKPLLLMHITQGVAGEEVNTAHYRHHLDLAEGAEATVIEHFVSLNDARHFTGARFTINVAANAHLQHIKLAFENPLSHHFAHNDLLLAEDATAFSHSFLLGGAVLRHNTSTQLNGENSTLRINSLAMPVKNEVCDTRTWLEHNKGFCNSRQLHKTIVSDKGRAVFNGLINVAQHAIKTDGQMTNNNLLMGKLAEVDTKPQLEIYADDVKCSHGATVGRIDDEQIFYLRSRGINQQDAQQMIIYAFAAELTEALRDEGLKQQVLARIGQRLPGGAR
